Experimental data taken from patent US20240124560A1.

How the values were obtained:
Assay in all cases: cell-based or functional assay
[1] = biological target: HIV-1 Env of NAC_89.6 (HIV-1)
[2] = biological target: HIV-1 Env of NAC_HxB2 (HIV-1) (UniProt P04578)
[3] = biological target: HIV-1 Env of NAC_MN (HIV-1) (UniProt P05877)
[4] = biological target: HIV-1 Env of NAC_YU2 (HIV-1) (UniProt P35961)
[5] = biological target: HIV-1 Env of NIH-002_QHO692 .42 (HIV-1)
[6] = biological target: HIV-1 Env of NIH-007_CAAN5342.A2 (HIV-1)
[7] = biological target: HIV-1 Env of NIH-008_WEAU.d15.410.787 (HIV-1)
[8] = biological target: HIV-1 Env of NIH-021_ZM214M.PL15 (HIV-1)
[9] = biological target: HIV-1 Env of NIH-024_ZM53M.PB12 (HIV-1)
[10] = biological target: HIV-1 Env of NIH-030_HIV-0013095.2.11 (HIV-1)
[11] = biological target: HIV-1 Env of NIH-031_HIV-16055.2.3 (HIV-1)
[12] = biological target: HIV-1 Env of NIH-032_HIV-16845.2.22 (HIV-1)
[13] = biological target: HIV-1 Env of NIH-036_Ce2010 F5 (HIV-1)
[14] = biological target: HIV-1 Env of NIH-046_1394C9G1(Rev.) (HIV-1)
[15] = biological target: HIV-1 Env of NIH-054_CNE53 (HIV-1)
[16] = biological target: HIV-1 Env of NIH-058_Q23ENV17 (HIV-1)
[17] = biological target: HIV-1 Env of NIH-071_R1166.c01 (HIV-1)
[18] = biological target: HIV-1 Env of NIH-075_CNE8 (HIV-1)
[19] = biological target: HIV-1 Env of NIH-114_T257.31 (HIV-1)
[20] = biological target: HIV-1 Env of NIH-116_T263.8 (HIV-1)
[21] = biological target: HIV-1 Env of isolate NIH-083_P0402 c2 11 (HIV-1)
[22] = biological target: HIV-1 Env of isolate NIH-087_P1981 C5 3 (HIV-1)
[23] = biological target: HIV-1 Env of pseudovirus NAC_94UG103 (HIV-1)
[24] = biological target: HIV-1 Env of pseudovirus NAC_BG505 (HIV-1)
[25] = biological target: HIV-1 Env of pseudovirus NAC_DH12 (HIV-1)
[26] = biological target: HIV-1 Env of pseudovirus NAC_HxB2 (HIV-1) (UniProt P04578)
[27] = biological target: HIV-1 Env of pseudovirus NAC_YU2 (HIV-1) (UniProt P35961)
[28] = biological target: HIV-1 Env of pseudovirus NIH-004_PVO.4 (HIV-1)
[29] = biological target: HIV-1 Env of pseudovirus NIH-010_1054.07.TC4.1499 (HIV-1)
[30] = biological target: HIV-1 Env of pseudovirus NIH-012_1012.11.TC21.3257 (HIV-1)
[31] = biological target: HIV-1 Env of pseudovirus NIH-022_ZM233M.PB6 (HIV-1)
[32] = biological target: HIV-1 Env of pseudovirus NIH-027_CAP45.G3 (HIV-1)
[33] = biological target: HIV-1 Env of pseudovirus NIH-035_Ce1176 A3 (HIV-1)
[34] = biological target: HIV-1 Env of pseudovirus NIH-046_1394C9G1(Rev.) (HIV-1)
[35] = biological target: HIV-1 Env of pseudovirus NIH-054_CNE53 (HIV-1)
[36] = biological target: HIV-1 Env of pseudovirus NIH-060_Q769ENVd22 (HIV-1)
[37] = biological target: HIV-1 Env of pseudovirus NIH-061_Q259ENVd2.17 (HIV-1)
[38] = biological target: HIV-1 Env of pseudovirus NIH-066_191084 B7.19 (HIV-1)
[39] = biological target: HIV-1 Env of pseudovirus NIH-068_620345.c01 (HIV-1)
[40] = biological target: HIV-1 Env of pseudovirus NIH-073_C3347.c11 (HIV-1)
[41] = biological target: HIV-1 Env of pseudovirus NIH-074_C4118.c09 (HIV-1)
[42] = biological target: HIV-1 Env of pseudovirus NIH-078_BJOX015000.11.5 (HIV-1)
[43] = biological target: HIV-1 Env of pseudovirus NIH-095_6480.v4.c25 (HIV-1)
[44] = biological target: HIV-1 Env of pseudovirus NIH-099_3301.v1.c24 (HIV-1)
[45] = biological target: HIV-1 Env of pseudovirus NIH-118_T255.34 (HIV-1)

Substance: 4E10 (antibody)
- IC80 neutralization [1]: 10.9 µg/mL
- IC80 neutralization [2]: 0.089 µg/mL
- IC80 neutralization [3]: 0.135 µg/mL
- IC80 neutralization [4]: > 50 µg/mL
- IC80 neutralization [5]: 25 µg/mL
- IC80 neutralization [6]: 12.1 µg/mL
- IC80 neutralization [7]: 2.59 µg/mL
- IC80 neutralization [8]: 21.2 µg/mL
- IC80 neutralization [9]: 42.6 µg/mL
- IC80 neutralization [10]: 0.258 µg/mL
- IC80 neutralization [11]: 6.57 µg/mL
- IC80 neutralization [12]: 0.653 µg/mL
- IC80 neutralization [13]: > 50 µg/mL
- IC80 neutralization [14]: 10.4 µg/mL
- IC80 neutralization [15]: 1.52 µg/mL
- IC80 neutralization [16]: 5.37 µg/mL
- IC80 neutralization [17]: 1.77 µg/mL
- IC80 neutralization [18]: 0.27 µg/mL
- IC80 neutralization [19]: 4.71 µg/mL
- IC80 neutralization [20]: 0.927 µg/mL
- IC80 (µg/ml), TZM-bl pseudovirus neutralization [21]: 0.363 µg/mL
- IC80 (µg/ml), TZM-bl pseudovirus neutralization [22]: 0.406 µg/mL
- neutralization IC50 [23]: 1.77 µg/mL
- neutralization IC50 [24]: 1.15 µg/mL
- neutralization IC50 [25]: 1.17 µg/mL
- neutralization IC50 [26]: 0.021 µg/mL
- neutralization IC50 [27]: 15.9 µg/mL
- neutralization IC50 [28]: 9.59 µg/mL
- neutralization IC50 [29]: 1.35 µg/mL
- neutralization IC50 [30]: 2.06 µg/mL
- neutralization IC50 [31]: 1.05 µg/mL
- neutralization IC50 [32]: 0.886 µg/mL
- neutralization IC50 [33]: 1.74 µg/mL
- neutralization IC50 [34]: 2.58 µg/mL
- neutralization IC50 [35]: 0.38 µg/mL
- neutralization IC50 [36]: 1.61 µg/mL
- neutralization IC50 [37]: 7.12 µg/mL
- neutralization IC50 [38]: 1.23 µg/mL
- neutralization IC50 [39]: 0.663 µg/mL
- neutralization IC50 [40]: 0.034 µg/mL
- neutralization IC50 [41]: 0.322 µg/mL
- neutralization IC50 [42]: 0.165 µg/mL
- neutralization IC50 [43]: 0.561 µg/mL
- neutralization IC50 [44]: 20.3 µg/mL
- neutralization IC50 [45]: 0.326 µg/mL

Substance: PGZL1 (antibody)
- IC80 neutralization [1]: > 50 µg/mL
- IC80 neutralization [2]: 0.485 µg/mL
- IC80 neutralization [3]: 0.564 µg/mL
- IC80 neutralization [4]: > 50 µg/mL
- IC80 neutralization [5]: > 50 µg/mL
- IC80 neutralization [6]: > 50 µg/mL
- IC80 neutralization [7]: 39.6 µg/mL
- IC80 neutralization [8]: > 50 µg/mL
- IC80 neutralization [9]: > 50 µg/mL
- IC80 neutralization [10]: 0.113 µg/mL
- IC80 neutralization [11]: 42.6 µg/mL
- IC80 neutralization [12]: 2.47 µg/mL
- IC80 neutralization [13]: > 50 µg/mL
- IC80 neutralization [14]: 34.3 µg/mL
- IC80 neutralization [15]: 23.9 µg/mL
- IC80 neutralization [16]: > 50 µg/mL
- IC80 neutralization [17]: 19.5 µg/mL
- IC80 neutralization [18]: 0.945 µg/mL
- IC80 neutralization [19]: > 50 µg/mL
- IC80 neutralization [20]: 8.18 µg/mL
- IC80 (µg/ml), TZM-bl pseudovirus neutralization [21]: 32.3 µg/mL
- IC80 (µg/ml), TZM-bl pseudovirus neutralization [22]: 5.55 µg/mL
- neutralization IC50 [23]: 24.1 µg/mL
- neutralization IC50 [24]: 16.7 µg/mL
- neutralization IC50 [25]: 4.71 µg/mL
- neutralization IC50 [26]: 0.121 µg/mL
- neutralization IC50 [27]: > 50 µg/mL
- neutralization IC50 [28]: 49 µg/mL
- neutralization IC50 [29]: 5.15 µg/mL
- neutralization IC50 [30]: 13.3 µg/mL
- neutralization IC50 [31]: 5.9 µg/mL
- neutralization IC50 [32]: 18.3 µg/mL
- neutralization IC50 [33]: 31.7 µg/mL
- neutralization IC50 [34]: 7.87 µg/mL
- neutralization IC50 [35]: 6 µg/mL
- neutralization IC50 [36]: 20.2 µg/mL
- neutralization IC50 [37]: > 50 µg/mL
- neutralization IC50 [38]: 30.9 µg/mL
- neutralization IC50 [39]: 12.6 µg/mL
- neutralization IC50 [40]: 0.055 µg/mL
- neutralization IC50 [41]: 8.37 µg/mL
- neutralization IC50 [42]: 2.59 µg/mL
- neutralization IC50 [43]: 15 µg/mL
- neutralization IC50 [44]: > 50 µg/mL
- neutralization IC50 [45]: 3.35 µg/mL

Substance: VRC01 (antibody)
- IC80 neutralization [1]: 3.3 µg/mL
- IC80 neutralization [2]: 0.081 µg/mL
- IC80 neutralization [3]: 0.196 µg/mL
- IC80 neutralization [4]: 0.69 µg/mL
- IC80 neutralization [5]: 7.93 µg/mL
- IC80 neutralization [6]: 2.79 µg/mL
- IC80 neutralization [7]: 0.306 µg/mL
- IC80 neutralization [8]: 2.42 µg/mL
- IC80 neutralization [9]: 3.63 µg/mL
- IC80 neutralization [10]: 0.058 µg/mL
- IC80 neutralization [11]: 0.206 µg/mL
- IC80 neutralization [12]: 4.25 µg/mL
- IC80 neutralization [13]: 0.625 µg/mL
- IC80 neutralization [14]: 1.12 µg/mL
- IC80 neutralization [15]: 0.166 µg/mL
- IC80 neutralization [16]: 0.148 µg/mL
- IC80 neutralization [17]: 1.95 µg/mL
- IC80 neutralization [18]: 0.514 µg/mL
- IC80 neutralization [19]: 6.57 µg/mL
- IC80 neutralization [20]: 0.505 µg/mL
- IC80 (µg/ml), TZM-bl pseudovirus neutralization [21]: 0.164 µg/mL
- IC80 (µg/ml), TZM-bl pseudovirus neutralization [22]: 0.8 µg/mL
- neutralization IC50 [23]: 0.187 µg/mL
- neutralization IC50 [24]: 0.056 µg/mL
- neutralization IC50 [25]: 0.227 µg/mL
- neutralization IC50 [26]: 0.022 µg/mL
- neutralization IC50 [27]: 0.123 µg/mL
- neutralization IC50 [28]: 0.192 µg/mL
- neutralization IC50 [29]: 0.909 µg/mL
- neutralization IC50 [30]: 0.081 µg/mL
- neutralization IC50 [31]: 1.41 µg/mL
- neutralization IC50 [32]: 1.92 µg/mL
- neutralization IC50 [33]: 1.25 µg/mL
- neutralization IC50 [34]: 0.28 µg/mL
- neutralization IC50 [35]: 0.042 µg/mL
- neutralization IC50 [36]: 0.025 µg/mL
- neutralization IC50 [37]: 0.114 µg/mL
- neutralization IC50 [38]: 0.049 µg/mL
- neutralization IC50 [39]: > 50 µg/mL
- neutralization IC50 [40]: 0.063 µg/mL
- neutralization IC50 [41]: 0.05 µg/mL
- neutralization IC50 [42]: 0.06 µg/mL
- neutralization IC50 [43]: 0.014 µg/mL
- neutralization IC50 [44]: 0.112 µg/mL
- neutralization IC50 [45]: 0.229 µg/mL
